Laboratory results taken from the supplement of paper PMC9732359.
± gives the uncertainty stated by the source.

Test: protein stability index of a GFP-peptide fusion (yeast GPS) (PSI 1-4); higher = more stable; sorted into four equal gates, so the index is relative within each strain
Method in brief: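 Each library plasmid carries Cherry plus GFP with a tiled 17-residue yeast protein peptide fused downstream, and the pooled library was carried in yeast. Mid-log cultures in leucine-free medium were sorted into four equal gates by GFP/Cherry ratio. Reads from Illumina sequencing of PCR-amplified plasmids from each gate were assigned to strains by barcodes. Per peptide, the protein stability index was computed as the summed products of gate read frequency and gate number.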

| Sequence | protein stability index (doa10∆) | protein stability index (pdr5∆) | protein stability index (san1∆) | protein stability index (ubr1∆) |
| --- | --- | --- | --- | --- |
| REAYIENFAKGEHISAI [SWP82] | 2.98 ± 0.07 | 3.11 ± 0.089 | 2.99 ± 0.061 | 3.07 ± 0.067 |
| REIDALKKQLHVSHEAM [YIL149C/MLP2] | 2.88 ± 0.05 | 2.97 ± 0.047 | 2.91 ± 0.048 | 2.82 ± 0.049 |
| REISNFSKGDADVLVDR [SRP72] | 3.22 ± 0.098 | 3.19 ± 0.096 | 3.03 ± 0.097 | 3.06 ± 0.079 |
| REKALNEEAEARRLKNR [RPL19A] | 3.21 ± 0.075 | 3.15 ± 0.11 | 3.09 ± 0.095 | 3.24 ± 0.066 |
| RELILAKKQNYKLTNDE [YCG1] | 3.37 ± 0.067 | 3.35 ± 0.053 | 3.23 ± 0.05 | 3.29 ± 0.041 |
| RELREVIELPLKNPEIF [RPT4] | 2.71 ± 0.14 | 3.73 ± 0.27 | 3.08 ± 0.18 | 3.06 ± 0.088 |
| REMRRKVYAQLLESYKT [RPN7] | 2.36 ± 0.081 | 2.96 ± 0.14 | 2.32 ± 0.18 | 2.7 ± 0.09 |
| RETNDDIWRVAGKFELL [SNF2] | 2.54 ± 0.067 | 2.26 ± 0.065 | 2.43 ± 0.076 | 2.8 ± 0.066 |
| RFELHGDMTNSDAQSNL [REC8] | 2.93 ± 0.27 | 3.58 ± 0.13 | 2.9 ± 0.17 | 3.22 ± 0.095 |
| RFFWKRSTNKKSKILRK [UBP6] | 1.19 ± 0.19 | – | – | 1.28 ± 0.16 |
| RFRKLTSQEINDRLEAL [PRE8] | 3.07 ± 0.14 | 3.01 ± 0.089 | 2.52 ± 0.24 | 2.91 ± 0.11 |
| RFTPGSFTNYITRSFKE [RPS0A] | 3.03 ± 0.16 | 3.36 ± 0.1 | 2.93 ± 0.1 | 3.07 ± 0.11 |
| RGAHVEKTMVKKNLGRL [PRP8] | – | 3.29 ± 0.16 | 3.14 ± 0.18 | – |
| RGPRNSREAVRHFGMGP [RPL18A] | 2.53 ± 0.25 | 2.86 ± 0.18 | – | – |
| RGPYLVIVPLSTLSNWS [SNF2] | 1.84 ± 0.051 | 2.32 ± 0.062 | 2.17 ± 0.065 | 2.41 ± 0.035 |
| RGRSVMKESVVEINSSE [ESC2] | 3.15 ± 0.11 | 2.83 ± 0.14 | 3.09 ± 0.17 | 2.98 ± 0.1 |
| RGTLTKNLKHIDVTFTK [RPL9A] | 3.32 ± 0.06 | 3.25 ± 0.067 | 3 ± 0.077 | 2.72 ± 0.065 |
| RGYWGTNLGQPHSLATK [RPS2] | 2.68 ± 0.23 | 3.18 ± 0.16 | 3.04 ± 0.1 | 2.85 ± 0.093 |
| RHGFNRSNTGALMRCSF [RPO21] | 2.71 ± 0.059 | 3.01 ± 0.064 | 2.85 ± 0.061 | 2.88 ± 0.079 |
| RHLRRTGKVSEFISIYS [RET1] | 1.48 ± 0.14 | 2.05 ± 0.13 | – | 1.37 ± 0.14 |
| RIENPEKYAAAAPAATS [RPP0] | 2.95 ± 0.085 | 3.22 ± 0.11 | 2.71 ± 0.094 | 3.16 ± 0.057 |
| RILKLGTQLATLKNRGL [YGR119C/NUP57] | 2.29 ± 0.078 | 2.57 ± 0.068 | 2.65 ± 0.081 | 2.84 ± 0.046 |
| RIRKLTGQNFLTSNISS [REC8] | 1.6 ± 0.056 | 1.79 ± 0.05 | 1.57 ± 0.093 | 1.53 ± 0.053 |
| RKKTPAGDWKYDRQLSS [FAS2] | 1.25 ± 0.066 | 2.43 ± 0.092 | 1.59 ± 0.19 | 1.32 ± 0.079 |
| RKNDNANDHDESIDVDM [SMC3] | 2.83 ± 0.24 | 2.72 ± 0.23 | 3.32 ± 0.11 | 3.19 ± 0.094 |
| RKNRYVILQSDLEEAYA [RPT3] | 2.41 ± 0.22 | 2.23 ± 0.15 | 2.1 ± 0.17 | 2.11 ± 0.11 |
| RKSAPVDSWDREFLKVD [SKP1] | 3.25 ± 0.13 | 3.27 ± 0.094 | 3.04 ± 0.1 | 3.19 ± 0.078 |

| Sequence | protein stability index (doa10∆) | protein stability index (pdr5∆) | protein stability index (san1∆) | protein stability index (ubr1∆) |
| --- | --- | --- | --- | --- |
| RKSKLNLDNLQKVSQLE [POP4] | 2.89 ± 0.2 | – | – | – |
| RKTWKRQNTLSLWRYRK [RPL15A] | 3.45 ± 0.083 | 3.1 ± 0.074 | 3.3 ± 0.052 | 3.36 ± 0.046 |
| RKVEKEKNEKEREIKRR [UBP6] | 3.32 ± 0.056 | 3.27 ± 0.054 | 3.09 ± 0.053 | 3.17 ± 0.068 |
| RKWMEEKADYERELISN [YIL149C/MLP2] | 3.23 ± 0.045 | 3.35 ± 0.086 | 3.11 ± 0.04 | 3.31 ± 0.063 |
| RKYDLFQNLELETEQLS [SMC2] | 3.21 ± 0.073 | 3.1 ± 0.076 | 1.99 ± 0.17 | 2.17 ± 0.059 |
| RKYSFNYSSLPSPYKTT [YAR002W/NUP60] | 2.56 ± 0.054 | 2.8 ± 0.05 | 2.71 ± 0.058 | 2.71 ± 0.045 |
| RLAKSTENEIPNLIEKM [BRR2] | 1.62 ± 0.08 | 1.5 ± 0.052 | 1.75 ± 0.087 | 1.68 ± 0.058 |
| RLDNLQDIKKAKRVENF [DSN1] | 1.52 ± 0.059 | 1.42 ± 0.039 | 2.56 ± 0.074 | 2.56 ± 0.048 |
| RLIVDPNIADYITAKNN [PRP8] | 2.15 ± 0.076 | 2.22 ± 0.066 | 2.36 ± 0.26 | 2.08 ± 0.052 |
| RLKEINGWEKYLHNVEL [ISW2] | 2.97 ± 0.12 | – | – | 2.94 ± 0.057 |
| RLKGDIFCVGSGQTFAY [PRE2] | 2.39 ± 0.05 | 1.77 ± 0.041 | 2.25 ± 0.019 | 1.79 ± 0.044 |
| RLKVFEGIPPPYDKKKR [RPL16A] | 2.99 ± 0.087 | 2.9 ± 0.094 | 3.05 ± 0.065 | 2.97 ± 0.08 |
| RLKYALNGREVKAILMQ [RPS4A] | 1.74 ± 0.073 | 1.39 ± 0.062 | 1.62 ± 0.18 | 1.24 ± 0.05 |
| RLNENKKIGCYMFANLE [CSN12] | 2.76 ± 0.17 | 3.14 ± 0.18 | 3.25 ± 0.084 | 3.27 ± 0.11 |
| RMIPPRMVRSIMWQLLD [SSN3] | 1.95 ± 0.18 | 1.68 ± 0.12 | 1.56 ± 0.11 | – |
| RMKSITSTSQKIPSASI [SNF5] | 3.2 ± 0.082 | 3.18 ± 0.072 | 3.17 ± 0.045 | 3.08 ± 0.051 |
| RMPMDFKGVIVKIVDKD [PRE1] | 2.25 ± 0.17 | 3.11 ± 0.18 | 3.19 ± 0.22 | 2.37 ± 0.056 |
| RMSSEEVNSLLLQVNKT [GRR1] | 3.03 ± 0.16 | 3.13 ± 0.2 | 2.96 ± 0.19 | 2.78 ± 0.16 |
| RNAALRAKAEAAEFRYK [SCL1] | 2.9 ± 0.068 | 3.28 ± 0.072 | 2.93 ± 0.056 | 3 ± 0.057 |
| RNAQAQREAAAEYAQLL [RPS6A] | 2.88 ± 0.23 | 3.31 ± 0.2 | 2.85 ± 0.15 | 3.2 ± 0.12 |
| RNDKTLELMDSKKTGQF [POP1] | 3.34 ± 0.069 | 3.44 ± 0.06 | 3.18 ± 0.064 | 3.37 ± 0.05 |
| RNEEILRDIGECENEIK [SMC2] | 2.75 ± 0.094 | 2.94 ± 0.075 | 2.49 ± 0.12 | 3.23 ± 0.11 |
| RNFKKANLVNKESDLLE [BRN1] | 1.7 ± 0.099 | 1.58 ± 0.051 | 1.64 ± 0.11 | 1.43 ± 0.053 |
| RNFLETVELQVGLKNYD [RPL1A] | 3.01 ± 0.087 | 3.08 ± 0.079 | 3.1 ± 0.091 | 3.15 ± 0.074 |
| RNFSLAIIDKNTGLTFK [PRE4] | 3.14 ± 0.068 | 3.07 ± 0.071 | 3.14 ± 0.043 | 3.18 ± 0.058 |
| RNHKHALHGTAKALAAA [RPL29] | 2.502 ± 0.019 | 2.685 ± 0.017 | 2.523 ± 0.018 | 2.647 ± 0.014 |
| RNISFSDNNSRIMSRNF [SWI1] | 2.93 ± 0.047 | 2.85 ± 0.057 | 2.9 ± 0.068 | 3.16 ± 0.035 |
